Laboratory results reported in patent publication US20250179163A1 (Sanofi, published 2025).
Values belong to the molecule of their own block, whether it stands above or below them.

Assays:
[1] = biological target: T1, Human TGFβ1 (human, UniProt P01137 279-390); test: SPR (Biacore T200), TGFβ1 amine-coupled to CM5 chip, Fab injected
T1 construct: also called Transforming Growth Factor-β1

[2] = biological target: T1, Human TGFβ1
[3] = biological target: T1, Human TGFβ1; test: Octet QK384, Fab from conditioned medium captured on anti-Fab-CH1 biosensors, 200 nM TGFβ1; qualitative
Description: Conditioned media (CM) was harvested 4 days post-transfection and the Octet QK384 instrument was used to calculate expression level and TGFβ1 binding in a single assay. […] Binding to anti-Fab-CH1 biosensors was measured for 2 min at 1000 rpm and 30° C. plate temperature for quantitation and capture. The sensors were then moved into wells containing 200 nM of TGFβ1 for binding assessment.

T1 sequence (P01137 279-390 limits assumed): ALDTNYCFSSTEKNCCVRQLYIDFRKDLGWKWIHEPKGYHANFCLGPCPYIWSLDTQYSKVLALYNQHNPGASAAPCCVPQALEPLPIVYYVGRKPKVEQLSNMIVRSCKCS

Kd [1]: 2.9 nM
koff [1]: 0.00208 s⁻¹
kon [1]: 711000 M⁻¹ s⁻¹
Molecule: GC1008 Fab

IC50 (read off the curve) [2]: 1 ng/mL
Molecule: GC1008 control (antibody)

binding result [3]: binds
B1: CAT192 A25S Fab (Fab, V domains shown)
VH: EVQLVESGGGVVQPGRSLRLSCAASGFTFSSYGMHWVRQAPGKELEWVAVISYDGSIKYYADSVKGRFTISRDNSKNTLYLQMNSLRAEDTAVYYCARTGEYSGYDTDPQYSWGQGTTVTVSS
VL: EIVLTQSPSSLSASVGDRVTITCRSSQGIGDDLGWYQQKPGKAPILLIYGTSTLQSGVPSRFSGSGSGTDFTLTINSLQPEDFATYYCLQDSNYPLTFGGGTRLEIKR
notes: Control light chain mutant in the Fv; His-tagged HC Fab, HC limits see recheck; also called A25S mutant
